Residue numbers refer to the chain shown, from its start.
Experiments:
Test in all cases: SPR, KD relative to WT C2;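 further: biacore SPR at 37 °C, anti-C2 mAbs captured via immobilised goat anti-human IgG, C2 alanine or serine surface mutants as analytes, 1:1 model fitted, double-referenced sensograms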
human C2 R519A = target: T1, human C2 R519A (human, UniProt P06681 21-752)
T1 sequence: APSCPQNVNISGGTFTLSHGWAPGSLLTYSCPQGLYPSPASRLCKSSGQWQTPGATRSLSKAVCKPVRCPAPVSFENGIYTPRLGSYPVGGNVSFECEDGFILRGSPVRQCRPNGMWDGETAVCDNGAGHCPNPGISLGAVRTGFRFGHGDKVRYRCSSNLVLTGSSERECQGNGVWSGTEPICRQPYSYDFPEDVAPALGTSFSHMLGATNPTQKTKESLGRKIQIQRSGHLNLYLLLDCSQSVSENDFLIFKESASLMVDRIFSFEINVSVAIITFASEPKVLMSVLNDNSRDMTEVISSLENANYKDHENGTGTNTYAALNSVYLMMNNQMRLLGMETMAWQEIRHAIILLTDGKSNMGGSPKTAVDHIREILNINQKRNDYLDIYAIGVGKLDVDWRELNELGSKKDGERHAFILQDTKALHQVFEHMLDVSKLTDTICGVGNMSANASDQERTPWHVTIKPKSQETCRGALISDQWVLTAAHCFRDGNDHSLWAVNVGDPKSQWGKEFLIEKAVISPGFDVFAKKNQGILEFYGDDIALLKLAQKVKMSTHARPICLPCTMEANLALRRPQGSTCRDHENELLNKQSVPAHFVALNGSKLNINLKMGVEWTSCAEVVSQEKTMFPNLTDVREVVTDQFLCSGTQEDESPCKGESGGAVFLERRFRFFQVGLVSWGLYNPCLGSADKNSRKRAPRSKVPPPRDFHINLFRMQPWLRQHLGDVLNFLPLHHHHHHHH

human C2 S456A = target: T2, human C2 S456A (human, UniProt P06681 21-752)
T2 sequence: T1 sequence with S436A, A499R

human C2 E267A = target: T3, human C2 E267A (human, UniProt P06681 21-752)
T3 sequence: T1 sequence with E247A, A499R

human C2 K244A = target: T4, human C2 K244A (human, UniProt P06681 21-752)
T4 sequence: T1 sequence with K224A, A499R

B1: RF16-226 (antibody, human IgG4 S228P, lambda)
heavy: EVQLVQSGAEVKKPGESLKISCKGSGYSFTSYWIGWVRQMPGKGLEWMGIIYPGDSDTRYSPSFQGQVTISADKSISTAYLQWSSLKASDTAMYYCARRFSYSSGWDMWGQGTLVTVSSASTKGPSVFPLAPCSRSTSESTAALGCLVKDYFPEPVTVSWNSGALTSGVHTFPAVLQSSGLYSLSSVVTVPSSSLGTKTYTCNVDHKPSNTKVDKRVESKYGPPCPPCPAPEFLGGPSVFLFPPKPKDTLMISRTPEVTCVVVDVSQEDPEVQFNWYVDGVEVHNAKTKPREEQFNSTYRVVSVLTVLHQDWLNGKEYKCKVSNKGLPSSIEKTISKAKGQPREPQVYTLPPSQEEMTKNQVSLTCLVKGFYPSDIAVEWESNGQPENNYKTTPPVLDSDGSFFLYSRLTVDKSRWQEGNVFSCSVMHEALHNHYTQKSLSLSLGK
light: SYELTQPPSVSVSPGQTARITCSGDALTSKYVAWYQQKSGLAPLLVIYEDTRRPSGIPAKFSGSSSGSVATLTISGAHGDDEADYYCYSTDASGHQRVFGGGTKLTVLSQPKAAPSVTLFPPSSEELQANKATLVCLISDFYPGAVTVAWKADGSPVKAGVETTKPSKQSNNKYAASSYLSLTPEQWKSHRSYSCQVTHEGSTVEKTVAPTECS
notes: pH-dependent anti-C2 antibody from a phage display library; also called WT
For B1, the Fold diff (human C2 R519A) was 1 fold, the Fold diff (human C2 S456A) was 7 fold and the Fold diff (human C2 E267A) was 1 fold. The Fold diff (human C2 K244A) was 2 fold.
